# FireProtDB (doi:10.1093/protein/12.10.841)
# Values joined by “and” are separate entries in the source; they are usually repeats but may differ in a detail not shown here. Equal entries are not always repeated.
# B1: Lysozyme C, P61626 (parent)
# chain: MKALIVLGLVLLSVTVQGKVFERCELARTLKRLGMDGYRGISLANWMCLAKWESGYNTRATNYNAGDRSTDYGIFQINSRYWCNDGKTPGAVNACHLSCSALLQDNIADAVACAKRVVRDPQGIRAWVAWRNRCQNRDVRQYVQGCGV
# Variants of: B1
# Settings: Homo sapiens; pH 2.51; Thermal; DSC; glycine 0.05 M; reversible: yes; structure 1LZ1; whole UniProt chain shown
Variant,Tm [°C],heat capacity change of unfolding [kcal/mol/K],unfolding enthalpy (calorimetric) [kcal/mol],unfolding enthalpy (van 't Hoff) [kcal/mol]
MKALIVLGLVLLSVTVQGKVFERCELARTLKRLGMDGYRGISLANWMCLAKWESGYNTRATNYNAGDRSTDYGIFQSNSRYWCNDGKTPGAVNACHLSCSALLQDNIADAVACAKRVVRDPQGIRAWVAWRNRCQNRDVRQYVQGCGV,50.2,1.27,87,92.7

# Same assay, conditions: Homo sapiens; pH 2.7; 64.9 °C; Thermal; DSC; glycine 0.05 M; reversible: yes; structure 1LZ1; whole UniProt chain shown
row,Variant,ddG of mutation (higher = less stable) [kcal/mol]
1,MKALIVLGLVLLSVTVQGKVFERCELARTLKRLGMDGYRGISLANWMCLAKWESGYNTRATNYNAGDRSTDYGIFQSNSRYWCNDGKTPGAVNACHLSCSALLQDNIADAVACAKRVVRDPQGIRAWVAWRNRCQNRDVRQYVQGCGV,3.59
2,MKALIVLGLVLLSVTVQGKVFERCELARTLKRLGMDGYRGISLANWMCLAKWESGYNTRATNYNAGDRSTDYGLFQINSRYWCNDGKTPGAVNACHLSCSALLQDNIADAVACAKRVVRDPQGIRAWVAWRNRCQNRDVRQYVQGCGV,0.1
3,MKALIVLGLVLLSVTVQGKVFERCELARTLKRLGMDGYRGISLANWMCLAKWESGYNTRATNYNAGDRSTDYGMFQINSRYWCNDGKTPGAVNACHLSCSALLQDNIADAVACAKRVVRDPQGIRAWVAWRNRCQNRDVRQYVQGCGV,1.77

# Same assay, conditions: Homo sapiens; pH 2.7; Thermal; DSC; glycine 0.05 M; reversible: yes; structure 1LZ1; whole UniProt chain shown
Variant,"change of melting temperature, mutant - wild type (higher = more stable) [°C]",heat capacity change of unfolding,unfolding enthalpy (calorimetric),unfolding enthalpy (van 't Hoff),Tm
MKALIVLGLVLLSVTVQGKVFERCELARTLKRLGMDGYRGISLANWMCLAKWESGYNTRATNYNAGDRSTDYGIFQSNSRYWCNDGKTPGAVNACHLSCSALLQDNIADAVACAKRVVRDPQGIRAWVAWRNRCQNRDVRQYVQGCGV,-11.8,1.2 kcal/mol/K and 1.34 kcal/mol/K,90.8 kcal/mol and 107 kcal/mol,96.8 kcal/mol and 114 kcal/mol,–
MKALIVLGLVLLSVTVQGKVFERCELARTLKRLGMDGYRGISLANWMCLAKWESGYNTRATNYNAGDRSTDYGLFQINSRYWCNDGKTPGAVNACHLSCSALLQDNIADAVACAKRVVRDPQGIRAWVAWRNRCQNRDVRQYVQGCGV,-0.3,1.41 kcal/mol/K,107 kcal/mol,119 kcal/mol,64.6 °C and 64.9 °C
MKALIVLGLVLLSVTVQGKVFERCELARTLKRLGMDGYRGISLANWMCLAKWESGYNTRATNYNAGDRSTDYGMFQINSRYWCNDGKTPGAVNACHLSCSALLQDNIADAVACAKRVVRDPQGIRAWVAWRNRCQNRDVRQYVQGCGV,-5.8,1.63 kcal/mol/K and 1.53 kcal/mol/K,97.3 kcal/mol and 106 kcal/mol,107 kcal/mol and 115 kcal/mol,–

# Same assay, conditions: Homo sapiens; pH 2.84; Thermal; DSC; glycine 0.05 M; reversible: yes; structure 1LZ1; whole UniProt chain shown
Variant,Tm [°C],heat capacity change of unfolding [kcal/mol/K],unfolding enthalpy (calorimetric) [kcal/mol],unfolding enthalpy (van 't Hoff) [kcal/mol]
MKALIVLGLVLLSVTVQGKVFERCELARTLKRLGMDGYRGISLANWMCLAKWESGYNTRATNYNAGDRSTDYGIFQSNSRYWCNDGKTPGAVNACHLSCSALLQDNIADAVACAKRVVRDPQGIRAWVAWRNRCQNRDVRQYVQGCGV,55.3,1.55,94.7,99.9

# Same assay, conditions: Homo sapiens; pH 3.04; Thermal; DSC; glycine 0.05 M; reversible: yes; structure 1LZ1; whole UniProt chain shown
Variant,Tm [°C],heat capacity change of unfolding [kcal/mol/K],unfolding enthalpy (calorimetric) [kcal/mol],unfolding enthalpy (van 't Hoff) [kcal/mol]
MKALIVLGLVLLSVTVQGKVFERCELARTLKRLGMDGYRGISLANWMCLAKWESGYNTRATNYNAGDRSTDYGIFQSNSRYWCNDGKTPGAVNACHLSCSALLQDNIADAVACAKRVVRDPQGIRAWVAWRNRCQNRDVRQYVQGCGV,58.2,1.48,98.2,104

# Same assay, conditions: Homo sapiens; pH 3.17; Thermal; DSC; glycine 0.05 M; reversible: yes; structure 1LZ1; whole UniProt chain shown
Variant,Tm [°C],heat capacity change of unfolding [kcal/mol/K],unfolding enthalpy (calorimetric) [kcal/mol],unfolding enthalpy (van 't Hoff) [kcal/mol]
MKALIVLGLVLLSVTVQGKVFERCELARTLKRLGMDGYRGISLANWMCLAKWESGYNTRATNYNAGDRSTDYGIFQSNSRYWCNDGKTPGAVNACHLSCSALLQDNIADAVACAKRVVRDPQGIRAWVAWRNRCQNRDVRQYVQGCGV,60,1.24,99.9,106

# Same assay, conditions: Homo sapiens; pH 2.48; Thermal; DSC; glycine 0.05 M; reversible: yes; structure 1LZ1; whole UniProt chain shown
Variant,Tm [°C],heat capacity change of unfolding [kcal/mol/K],unfolding enthalpy (calorimetric) [kcal/mol],unfolding enthalpy (van 't Hoff) [kcal/mol]
MKALIVLGLVLLSVTVQGKVFERCELARTLKRLGMDGYRGISLANWMCLAKWESGYNTRATNYNAGDRSTDYGLFQINSRYWCNDGKTPGAVNACHLSCSALLQDNIADAVACAKRVVRDPQGIRAWVAWRNRCQNRDVRQYVQGCGV,61.2,1.41,103,113

# Same assay, conditions: Homo sapiens; pH 2.65; Thermal; DSC; glycine 0.05 M; reversible: yes; structure 1LZ1; whole UniProt chain shown
Variant,Tm [°C],heat capacity change of unfolding [kcal/mol/K],unfolding enthalpy (calorimetric) [kcal/mol],unfolding enthalpy (van 't Hoff) [kcal/mol]
MKALIVLGLVLLSVTVQGKVFERCELARTLKRLGMDGYRGISLANWMCLAKWESGYNTRATNYNAGDRSTDYGLFQINSRYWCNDGKTPGAVNACHLSCSALLQDNIADAVACAKRVVRDPQGIRAWVAWRNRCQNRDVRQYVQGCGV,64,1.55,105,119

# Same assay, conditions: Homo sapiens; pH 2.96; Thermal; DSC; glycine 0.05 M; reversible: yes; structure 1LZ1; whole UniProt chain shown
Variant,Tm [°C],heat capacity change of unfolding [kcal/mol/K],unfolding enthalpy (calorimetric) [kcal/mol],unfolding enthalpy (van 't Hoff) [kcal/mol]
MKALIVLGLVLLSVTVQGKVFERCELARTLKRLGMDGYRGISLANWMCLAKWESGYNTRATNYNAGDRSTDYGLFQINSRYWCNDGKTPGAVNACHLSCSALLQDNIADAVACAKRVVRDPQGIRAWVAWRNRCQNRDVRQYVQGCGV,68.7,1.27,112,125

# Same assay, conditions: Homo sapiens; pH 2.54; Thermal; DSC; glycine 0.05 M; reversible: yes; structure 1LZ1; whole UniProt chain shown
Variant,Tm [°C],heat capacity change of unfolding [kcal/mol/K],unfolding enthalpy (calorimetric) [kcal/mol],unfolding enthalpy (van 't Hoff) [kcal/mol]
MKALIVLGLVLLSVTVQGKVFERCELARTLKRLGMDGYRGISLANWMCLAKWESGYNTRATNYNAGDRSTDYGMFQINSRYWCNDGKTPGAVNACHLSCSALLQDNIADAVACAKRVVRDPQGIRAWVAWRNRCQNRDVRQYVQGCGV,56.3,1.39,92.5,103

# Same assay, conditions: Homo sapiens; pH 2.83; Thermal; DSC; glycine 0.05 M; reversible: yes; structure 1LZ1; whole UniProt chain shown
Variant,Tm [°C],heat capacity change of unfolding [kcal/mol/K],unfolding enthalpy (calorimetric) [kcal/mol],unfolding enthalpy (van 't Hoff) [kcal/mol]
MKALIVLGLVLLSVTVQGKVFERCELARTLKRLGMDGYRGISLANWMCLAKWESGYNTRATNYNAGDRSTDYGMFQINSRYWCNDGKTPGAVNACHLSCSALLQDNIADAVACAKRVVRDPQGIRAWVAWRNRCQNRDVRQYVQGCGV,61.3,1.72,101,110

# Same assay, conditions: Homo sapiens; pH 3.02; Thermal; DSC; glycine 0.05 M; reversible: yes; structure 1LZ1; whole UniProt chain shown
Variant,Tm [°C],heat capacity change of unfolding [kcal/mol/K],unfolding enthalpy (calorimetric) [kcal/mol],unfolding enthalpy (van 't Hoff) [kcal/mol]
MKALIVLGLVLLSVTVQGKVFERCELARTLKRLGMDGYRGISLANWMCLAKWESGYNTRATNYNAGDRSTDYGMFQINSRYWCNDGKTPGAVNACHLSCSALLQDNIADAVACAKRVVRDPQGIRAWVAWRNRCQNRDVRQYVQGCGV,64.2,1.43,105,113

# Same assay, conditions: Homo sapiens; pH 3.11; Thermal; DSC; glycine 0.05 M; reversible: yes; structure 1LZ1; whole UniProt chain shown
Variant,Tm [°C],heat capacity change of unfolding [kcal/mol/K],unfolding enthalpy (calorimetric) [kcal/mol],unfolding enthalpy (van 't Hoff) [kcal/mol]
MKALIVLGLVLLSVTVQGKVFERCELARTLKRLGMDGYRGISLANWMCLAKWESGYNTRATNYNAGDRSTDYGMFQINSRYWCNDGKTPGAVNACHLSCSALLQDNIADAVACAKRVVRDPQGIRAWVAWRNRCQNRDVRQYVQGCGV,65.9,1.53,107,116
